{"source": "a protein production outcome set (Wang et al. 2014)"}
{"assay": "label from the status in PepcDB records"}
{"sequence": "MSILLSKTLRELIFWMAWIIIPLIMEIIPAFGGFFILVKKSFNSNREGFIGTLPEITLIIPIYNSEATLKGCIESIYNCSYPTRLIDLILVNNMSSDDSFQVFSQCQKEFCGLSMRYMNSKQGKSKALNMALFNSAGKYIIHIDSDGKLHYDAIKNMIVRFEKNPNIHCMTGAILSDIEGIEKTHKRFLKLIRRCEFFEYAQAFLAGRNFESEINSIYTLSGAFSAFRKSTILKTQLYNSKTVCEDTHITFQVRRLLKKKVYLCENSIFFVDPIENLNKLYTQRQRWQRGEIEVSHMFFKNKMNSPLGFFHNFMIRVVMYDHTFAFPRMIWYFAIIFLFFMNYPVKLVVGSLVIIYMLYVLSTFLFYLNVRIYLKEYKSIREYYKARWGYIFLMPIYNFVVFWIRFAGIINSIKIKSKWKTLTLNDEWTAFLKVIQSDFRMIGKGINKIRRLVND", "protein production": "failed"}
{"sequence": "MSILQGILDTYAQFFDLDMWIKVLQDPVSWGLIGTLVVLEGLLSADNALVLAVMVKHLPEEKRKKALFYGLIGAYVFRFIAIGIGMFLIKLAWVKVLGALYLAWLSVKYFIDKRKGNAEEEEAHGMNQNSILFRMFGVFWGTVAMVELMDIAFSVDSVLAAFGVSNEVWILLLGGMLGILMMRGIAGVFLKLLERIPELETTAYILILIIAAKMLLSVIHIEISHTVFFIILVVAFGATFILHYMKNSGQAKEEVAATKEDNK", "protein production": "failed"}
{"sequence": "MSINSNSVFNNSGRVSAAGIASVVGLAVLSAVAVTGGAVKVLVISWVAFAAMALGAWLGARADETNPYRLVWGYGLASGAMVTSAAMFLVPQAMGLGGQAGAARIGGVGIAAGLVTGYGTHTIGHRLTHIETSFDMTTIAIAAHALSAGLVIGLVYASMPDLGILLGLAIVSHKGPAGYAAARRLGRSDKSATALLLPAAGVGLTAIPSALLPVPESALLNAVIFGFAAGIFLHVAMDFLPNCEAGSEIDEVCELHDHSHDLLDELRTHAVGSTVVGAAVIVLAWVAI", "protein production": "failed"}
{"sequence": "MSIPKEQYNFNKLQKRLRRNVGQAIADFNMIEDGDKIMVCLSGGKDSYTLLSILMNLQKSAPIQFSLIAVNLDQKQPGFPEHILPEYLEQLGVEYKIVEENTYGIVKEIIPEGKTTCSLCSRLRRGILYRTATEVGATKIALGHHRDDILETLFLNMFYGGKLKGMPPKLMSDDGKHIVIRPLAYAREKDIERFAQAKNFPIIPCNLCGSQPNLQRQVIKEMLRDWDKRYPGRIETMFRATQNIVPSHLCDTQLFDFANIKQGDEIINGGDLAFDKDDIPTSPILSDDEDERPDFSQARLDVVEVK", "protein production": "not failed"}
{"sequence": "MSIRSLGYLRIEATDMAAWREYGLKVLGMVEGKGAPEGALYLRMDDFPARLVVVPGEHDRLLEAGWECANAEGLQEIRNRLDLEGTPYKEATAAELADRRVDEMIRFADPSGNCLEVFHGTALEHRRVVSPYGHRFVTGEQGMGHVVLSTRDDAEALHFYRDVLGFRLRDSMRLPPQMVGRPADGPPAWLRFFGCNPRHHSLAFLPMPTSSGIVHLMVEVEQADDVGLCLDRALRRKVPMSATLGRHVNDLMLSFYMKTPGGFDIEFGCEGRQVDDRDWIARESTAVSLWGHDFTVGARG", "protein production": "not failed"}
{"sequence": "MSISSKAKEILTQFTREVWSEGNIEASDKYIAPKYTVLHDPGDPWEGRELDVAGYKERVKTLRAAFPDQCFDIQGLFADGDAVVMTWLWTATHKEDIPGFPSTGKQIKMSGATVYYFDGNRLTGHWQITDRLGVYQQLRQAAAGA", "protein production": "not failed"}
{"sequence": "MSISWSMSRNMFKLAHISDVHLGPLPRLSIQELFSKRITGFVNWHRNRRKHLFASTLDLLLDDIRTHRADHLAVTGDLVNLASGIEIRAAAAWLRALGDPADTSVVPGNHDAYVPGAYEKSMRAWYDYVRGDLAPPQWQEDRRIFPYLRVRDKVAIVGCSTAVATPPFAASGFFSARQARDTVNMLRAAGEAGLFRVVMIHHPPIRGATAFHKRMIGIRRFAAVISTGGAELVLHGHTHLNTLHWLRGQVQPVPVVGIASASQGPGSIKPPAAYNLFSIDGAPGAWELTGERFSLNRTGDAMMPESVDIFAPLEHHHHHH", "protein production": "failed"}
{"sequence": "MSITQRKNGTYEVSISWYDSLGKRRTKSKRGFKTKPEAVLGEAKLRLEYEEVSVREKVDQQDTFAEYFKNWYIFYKKPKVSKVTLNRYQYTYNVINEYFGNKLLKDITRANYQKFIVKYGQNHSPNTMKMINNCIKACVKNAVYDEEIKKDFTYNIELISNRDNVVQVEYLNVAEIKALLNSTISKLNPRYTSNYMIVTAILTGARLSEIAGLTWNDINFNFNTININKSYDYFAKSFKPTKNKSSNRIIKINNTLCDVLKELRTNNTDLVFKNKRGLIPTSNAVNKALRARLEELNINRRNFHFHSLRHSHVAFLLSQGIDIYPIAQRLGHSDITTTTRTYAYLIEEYKDKNDAIIIAGLDKLSAEKAPTKVPAKSDI", "protein production": "failed"}
{"sequence": "MSIVIMFKYVSDVSNIYHNIITSFIENKNIAIDATLGNGHDCDFLSELFKKVYAFDIQEEAVNSYKSKNKENVEVILDSHENFETYIKEENVDCIVYNLGYLPGNNKEVTTVAHSTLKSIEIGLDLLGDNGLMIIALYSGHEEGKKEKDAVLQFTSKLPKNKYGVLHTEFTNRAKSAPSLVVIEKKFK", "protein production": "failed"}
{"sequence": "MSKATTPGDQPKVSEMDFYQLLGVEKMASEAEIKSAYRKLALKYHPDRNPNDAHAQEEFKKVSIAYSVLSDPNKRRQYDVSGPSENQLDFEGFDVSEMGGVGRVFGALFSKLGVPIPTQIVPKVLAQARHICMGQECDVQARQLPPGETVTSSVSKQHAHFYEINIQEEHRKNGVAIICKSSSSKFKLVLFDKEGGVRMIQESGKRGKAGTQADMFFVPYNVANIQEFNAMKYHLEDKETPLAFHYLDSFEMQTATLLETRKHYIAVYGDNWISDVKYSITFLPVEPSAVEQLNEIQDTEKSISIIKKEMLDFQREFTEAKRKYDEAVAKLKVQDDTILKALAHREELYNEVLQKSQEPYNKKVSPSKSSGGLLGWFK", "protein production": "not failed"}
{"sequence": "MSKDAQQISALRRFSVSIISVALLVISGTVGYMYLENMSLLDALYMTVITVATVGFSEVRPLDDVGKIFTMVLIVGGTGIFFFTLTSVAVFFVSGEWKEHWEQQRNERMLRKLNDHFIICGYGRLGGSVAEELRAKAVPFVVIDNMIDNVLRARDEGFLAIKGNAADEEVLADAGLHRAKGLIAAAGNDAENVFIVLTARNLKPNLYIVARADCDGSESKLRRAGAEKVVMLYRSAGKRMASLLTEPELEEYLDELSNANNLNLRIAQYLVGDNSPLVGKSFQEVDLYNNHRINVVGYKLPDGELHTTPRPAEIIQKNGTIIVIGKSDDLEMLCKLAQGETQR", "protein production": "failed"}
{"sequence": "MSKDEIKKPVVLIYCDTIEGTNIYLKKICEGLEEEGVPFQIQQVEKVEDSVEVLAQNASRNSNLGIGIGVLKNGDCALLQRRLPPNLPIQTLRGEKYDPNLYRNIGINAARLAKNLPLVFA", "protein production": "not failed"}
{"sequence": "MSKDSESNLAQRQSQPKAHADLRINSHWIIPIENTTDHNLVSNILIDHCLLIKDGIILAIEPQSSCQIPATETLDLGQQVLMPGWVNAHGHAAMSLFRGLADDLPLMTWLQEHVWPAEAQHVDEHFVKQGTELAIAEMIQSGTTTFADMYFYPQQSGEAALAAGIRAVCFAPVLDFPTNYAQNADEYIRKAIECNDRFNNHPMNEQGLVQIGFGPHAPYTVSDEPLKEITMLSDQLDMPVQIHLHETDFEVSESLETFNKRPTQRLADIGFLNERVSCVHMTQVDDGDIKILQKTGASIIHCPESNLKLASGFCPIAKLSAANIPLAIGTDGAASNNDLDMFSETKTAALLAKGVSQDASAIPAIEALTMATLGGARALGIDDITGSLKPGKAADIQAIDLNTLSSQPVFDPVSHMVYCTKSTQVSHVWVNGRCLLKNGELTTLNEETLINHAKAWASAIRTPIK", "protein production": "not failed"}
{"sequence": "MSKFYSEQFKRDAVALYENNENLSLAAAAAELRVNRASLHQWKKELGTGKRTRMIEAKAQAEAASDAERIRALEKENAKLREERDILRKAAKYFAEETSWLEHHHHHH", "protein production": "failed"}
{"sequence": "MSKGKKIFAIIFGIILVLFLAVVGMGAKLYWDVSKSMDKTYETVERSKKSQVNLNNKEPFSVLLLGIDTGDDGRVEQGRSDTTIVATVNPRDKQTTLVSLARDTYVDIPGQGKQDKLNHAYAFGGASLAMDTVENYLNIPINHYVSINMAGLKELVNAVGGIEVNNNLTFSQDGYDFTIGKISLDGEQALSYSRMRYEDPNGDYGRQERQRKVIEGIVQKVLSLNSVSNYQEILTAVSDNMKTDLSFDDMKKIALDYRSAFGKVKQDQLQGTGFMQDGVSYQRVDEQELTRVQQELKNQLNTK", "protein production": "failed"}
{"sequence": "MSKHVLRLALVGNPNSGKTALFNRLTGSRQKVANYPGVTVERKEGYFRASSGREFVILDLPGAYSFQPASFDEAITRDFCRGFYPGEAPPDVLVCVVDATNLRLHLRFVLELIELGRPVVVALNMVDAAQRRGIRIDRVILEQLLGVPVVETVAVRRHGARALLEQLDTGVIPLPAPVPALAAGDQYHAQVRHILDAAVKMPSRTSRVDDALDRWLLHPVFGLVVLTVVMFLIFQAVYAWAAPLVSLIEGSTTVLGHWVGNRLPDGPLRSLVVDGIITGIGGVLMFLPQILILFAFILALEESGYLPRAAFLLDRLMVLAGLSGRSFIPLLSSFACAVPGIMSTRSIQDPRDRLVTILVAPLMTCSARLPVYTLLIGAFVPRKSLWGPINQQGLVLFGLYMAGIFSALVVSWTVKKWRRGTSEHPLLLELPSYRLPHSRDLLLGLWERAVIFLKRVGGIILALTILLWFLLAFPEPPSGAIGPAIQYSFAGRIGHVIAVFFAPLGFSWQICIALIPGLAAREVAVSSLATVYALSASNEEMAVRALSPLIQDGWSLATALSLLVWYIYAPMCISTLVTIKRETNSWKHMAMTAGYLFALAYLAALATYQVALLLGAG", "protein production": "failed"}
{"sequence": "MSKIGRNDPCPCGSGKKYKQCCFHRATSAAATPDAEMLWRAGNAHLAGGALDMALSCYREAVRLRPGFAQAHYNLGVVFQQKGLLDEAAASFRSAISFNRDYAKAYNNLGYILATQGRLDESADCFNRAIAIEPGFAAAYHNLGTTLRHQGRLDETLAAFRTAHAINPHDPVFHSDLLMMLHYSDMDDETLFREHVRWGEQHAPAAASVPTHQCDRDPGRKLRIGYVSGDFGKHPVGYFLLPFLENHDRSQFEICCYSERGQRQEDDVTARIKGHADLWRRTIGLGDAAVAEMIRADGIDILVDLAGHTAHNRLRVFALKPAPVQVTWLGYPNTTGLRAMDYRITDAVADPPGSADALHTEQLIRLEQGFLCYTPPAGAPPVGEAPCLAGAGVTFGSFNNLAKVSPQVIDAWSAILGRVPGSRLMLKFKGFADETCRRRVSDAFGARGVSPDRLELVSFVENFNDHLALYNRLDLALDTFPYNGTATTCDALWMGVPVLTCCGTRHVARVGASILTSLGLPELITHSPEEYISAAAALAADPARLAALRRDMRPRLAASPLCDPTGFARRMETALRDIWRRWCSA", "protein production": "failed"}
{"sequence": "MSKISDNHDHSALQFMKKKVRENGSRDIRQIYVPAYTQVPLPNNMKKQIFFWLGALIFFILFMLVFGSILLPFVAGIVLAYFLNPIVQLLEKFRIRRVFGTILITLFIVVVFVAALIILIPIISWQIQQFMNDGLPVYINRIQTFFVEHDFDWVRRYFGSDPNELQSNIKGLLGQSSDFITSLLNSLLKSGKSLVNIVSLFVVAPVVAFYMLLDWPRMVTAVDSLIPRDHLETVRSIFHEMDRAIAGFVRGQGTACLILGGYYAIGLTITELNFGLLIGMFIGLISFVPYIGTMSGFLLSVGVAWVQFYPNNWGWIIVVMVIFLIGQFIEGYILQPKLVGSSVGLHPVWLMFALFAFSSLFGFTGMLIAVPAAAAVGVLVRFALHTYLNSQMYSRSGNSERLE", "protein production": "failed"}
{"sequence": "MSKKINELLRYCEENYIERGSLELALRCAVSICKANPDAPQAYAHVAAYRILLTAANYRTVTGEPDWYAVLGINKRGSSKSVVNAIDRRCEEIIEVLDGETGVSKAVSRVYDLVRLGVSELMDEDRRRAYDLRSGFSIIN", "protein production": "failed"}
